Our source for the Kd, koff and kon values is patent US10919966B2, “Antibody to programmed death-ligand 1 (PD-L1) and use thereof” (Y-BIOLOGICS INC., dated 2021).

In general, Kd refers to the constant that tells how readily two partners part at equilibrium. By koff is commonly meant the rate constant with which the complex falls apart. Read a high koff as a short-lived complex. In general, kon refers to the rate constant with which the complex forms.

Assay [1] has as its target T1, PD-L1-hFc (human, UniProt Q9NZQ7). The experiment in a line: SPR, ProteOn XPR36, PD-L1-hFc immobilised on GLC chip, antibody 30 nM to 0.123 nM. How it is done: (§1) A ProteOn XPR36 (BioRad) instrument was used. The GLC sensor chip (BioRad) was mounted on the instrument and washed with PBST buffer, and the carboxymethyldextran surface was activated with an EDC/sulfo-NHS mixed solution. PD-L1-hFc dissolved at a concentration of 5 ug/ml in a 10 mM sodium acetate buffer solution (pH 5.0) was injected and immobilized on the GLC sensor chip.
In order to deactivate the activated carboxyl groups that remain unreacted with the PD-L1 protein, 1 M ethanolamine was flowed and 10 mM glycine (pH 2.0) was injected in order to wash proteins that remain unbound to the sensor chip.
(In SPR one partner is held on a chip, and binding of the other changes the refractive index at the surface.)

Assay [2] addresses T1, PD-L1-hFc. Kind of assay: SPR, ProteOn XPR36, human PD-L1 (PD-L1-hFc immobilised). How it is done:
as §1
In order to deactivate the activated carboxyl groups that remain unreacted with the PD-L1 protein, 1 M ethanolamine was flowed and 10 mM glycine (pH 2.0) was injected in order to wash proteins that remain unbound to the sensor chip. Then, sensogram data were collected during binding and dissociation over time while allowing the antibodies to flow at a flow rate of 30 µL/min (30 nM to 0.123 nM) for 10 min using PBST buffer.

A further assay concerns the target cynomolgus PD-L1 protein (cynomolgus, UniProt G7PSE7). The experiment in a line: SPR, ProteOn XPR36, cynomolgus PD-L1 protein (construct not described).

T1 sequence (Q9NZQ7 other isoform, or with tags, fused parts or gaps): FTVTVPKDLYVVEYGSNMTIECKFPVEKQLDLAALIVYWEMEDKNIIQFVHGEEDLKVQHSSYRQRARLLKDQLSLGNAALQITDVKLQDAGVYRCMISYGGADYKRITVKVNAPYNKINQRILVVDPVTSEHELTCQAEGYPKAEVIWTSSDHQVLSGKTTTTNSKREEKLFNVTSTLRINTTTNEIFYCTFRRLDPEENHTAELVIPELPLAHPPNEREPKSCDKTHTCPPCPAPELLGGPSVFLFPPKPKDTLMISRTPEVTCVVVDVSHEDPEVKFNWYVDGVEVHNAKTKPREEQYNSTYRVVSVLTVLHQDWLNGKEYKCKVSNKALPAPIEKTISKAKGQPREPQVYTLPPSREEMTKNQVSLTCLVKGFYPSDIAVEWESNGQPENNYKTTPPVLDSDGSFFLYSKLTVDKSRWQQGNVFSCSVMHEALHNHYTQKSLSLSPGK

B1: PDL1-16E12 (antibody, V domains shown)
VH: QMQLVQSGAEVKKPGSSVKVSCKASGGTFSSYAISWVRQAPGQGLEWMGRIIPILGIANYAQKFQGRVTITADKSTSTAYMELSSLRSEDTAVYYCAKPRDGYNLVAFDIWGQGTMVTVSS
VL: QLVLTQPPSVSGAPGQTVTISCTGSSSNIGAGYDVHWYQQLPGTAPKLLIYGNNNRPSGVPDRFSGSKSGALASLAITGLQAEDGADYHCQSYDNSLSAHAVFGTGTKVTVL
On to B1, for which, in the assay with PD-L1-hFc [1], binding was characterised by a dissociation constant (Kd) of 45 pM.

B2: PDL1-16E12 (LS/4F5) (antibody, V domains shown)
VH: B1 VH
VL: QLVLTQPPSVSGAPGQRVTISCTGSSSNIGAGYDVHWYQQLPGAAPKLLIYGDINRPSGVPDRFSGSKSGISASLAITGLQAEDEADYYCQSYDSSLSGGVFGGGTKLTVL
In the assay with PD-L1-hFc [2], B2 returned a Kd of 1 pM, a koff of 1e-07 s⁻¹ and a kon of 310000 M⁻¹ s⁻¹. In the assay with cynomolgus PD-L1 protein, this molecule displayed a Kd of 1 pM and a koff of 1e-07 s⁻¹.
